From publication PMC5182059
Positions count from the first letter of the chain named. Numbers in names are those of the source.

B1: (1-452)Ric-8A truncation mutant (domain or fragment)
chain: MEPRAVADALETGEEDAVTEALRSFNREHSQSFTFDDAQQEDRKRLAKLLVSVLEQGLSPKHRVTWLQTIRILSRDRSCLDSFASRQSLHALACYADIAISEEPIPQPPDMDVLLESLKCLCNLVLSSPTAQMLAAEARLVVRLAERVGLYRKRSYPHEVQFFDLRLLFLLTALRTDVRQQLFQELHGVRLLTDALELTLGVAPKENPLVILPAQETERAMEILKVLFNITYDSVKREVDEEDAALYRYLGTLLRHCVMADAAGDRTEEFHGHTVNLLGNLPLKCLDVLLALELHEGSLEFMGVNMDVINALLAFLEKRLHQTHRLKECVAPVLSVLTECARMHRPARKFLKAQVLPPLRDVRTRPEVGDLLRNKLVRLMTHLDTDVKRVAAEFLFVLCSESVPRFIKYTGYGNAAGLLAARGLMAGGRPEGQYSEDEDTDTEEYREAKASI
B2: Ric-8A (1-491) G457A (domain or fragment)
chain: MEPRAVADALETGEEDAVTEALRSFNREHSQSFTFDDAQQEDRKRLAKLLVSVLEQGLSPKHRVTWLQTIRILSRDRSCLDSFASRQSLHALACYADIAISEEPIPQPPDMDVLLESLKCLCNLVLSSPTAQMLAAEARLVVRLAERVGLYRKRSYPHEVQFFDLRLLFLLTALRTDVRQQLFQELHGVRLLTDALELTLGVAPKENPLVILPAQETERAMEILKVLFNITYDSVKREVDEEDAALYRYLGTLLRHCVMADAAGDRTEEFHGHTVNLLGNLPLKCLDVLLALELHEGSLEFMGVNMDVINALLAFLEKRLHQTHRLKECVAPVLSVLTECARMHRPARKFLKAQVLPPLRDVRTRPEVGDLLRNKLVRLMTHLDTDVKRVAAEFLFVLCSESVPRFIKYTGYGNAAGLLAARGLMAGGRPEGQYSEDEDTDTEEYREAKASINPVTARVEEKPPNPMEGMTEEQKEHEAMKLVNMFDKLSR
B3: Ric-8A (1-491) K462A (domain or fragment)
chain: B2 chain with A457G, K462A
B4: Ric-8A (1-491) P464A (domain or fragment)
chain: B2 chain with A457G, P464A
B5: Ric-8A (1-491) M467A (domain or fragment)
chain: B2 chain with A457G, M467A
B6: Ric-8A (1-491) E468A (domain or fragment)
chain: B2 chain with A457G, E468A
B7: Ric-8A (1-491) V459A (domain or fragment)
chain: B2 chain with A457G, V459A
B8: Ric-8A (1-491) N465A (domain or fragment)
chain: B2 chain with A457G, N465A
B9: Ric-8A (1-491) R458A (domain or fragment)
chain: B2 chain with A457G, R458A
B10: Ric-8A (1-491), rat (Resistance to Inhibitors of Cholinesterase 8A) (domain or fragment)
chain: B2 chain with A457G
B11: Ric-8A (1-491) V455A (domain or fragment)
chain: B2 chain with V455A, A457G
B12: Ric-8A (1-491) P466A (domain or fragment)
chain: B2 chain with A457G, P466A
B13: Ric-8A (1-491) T456A (domain or fragment)
chain: B2 chain with T456A, A457G
B14: Ric-8A (1-491) P463A (domain or fragment)
chain: B2 chain with A457G, P463A
B15: Ric-8A (1-491) E461A (domain or fragment)
chain: B2 chain with A457G, E461A
B16: Ric-8A (1-491) E460A (domain or fragment)
chain: B2 chain with A457G, E460A
B17: Ric-8A (1-491) P454A (domain or fragment)
chain: B2 chain with P454A, A457G
B18: Ric-8A (1-491) G469A (domain or fragment)
chain: B2 chain with A457G, G469A

molecular target: myristoylated Gαi1 harboring a hexahistidine tag in the helical domain (rat) (UniProt P10824)
Chain of UniProt P10824 (P10824 whole entry, the tested form may be a part): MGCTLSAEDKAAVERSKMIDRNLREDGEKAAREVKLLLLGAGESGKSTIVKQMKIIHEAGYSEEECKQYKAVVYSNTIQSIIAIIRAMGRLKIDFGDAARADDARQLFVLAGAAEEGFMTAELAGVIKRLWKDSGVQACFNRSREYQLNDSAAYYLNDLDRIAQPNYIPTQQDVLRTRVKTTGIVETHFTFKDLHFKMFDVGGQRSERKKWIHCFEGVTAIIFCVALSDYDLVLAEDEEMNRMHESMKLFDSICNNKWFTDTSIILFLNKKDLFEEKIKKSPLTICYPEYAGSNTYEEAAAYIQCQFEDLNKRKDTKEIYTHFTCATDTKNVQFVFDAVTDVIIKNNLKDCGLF

Compared with B1, B2 is higher in v1: initial velocity of GDP to GTPγS exchange at Gαi1•GDP (2 μM) on adding GTPγS (10 μM) and Ric-8A (2 μM), tryptophan fluorescence, 25°C: 0.86 µM/min for the first, 3.47 µM/min for the second.

Compared with B3, B4 is lower in v1: initial velocity of GDP to GTPγS exchange at Gαi1•GDP (2 μM) on adding GTPγS (10 μM) and Ric-8A (2 μM), tryptophan fluorescence, 25°C: 4.46 µM/min for the first, 2.83 µM/min for the second.

Going from B5 to B6, the v1: initial velocity of GDP to GTPγS exchange at Gαi1•GDP (2 μM) on adding GTPγS (10 μM) and Ric-8A (2 μM), tryptophan fluorescence, 25°C rises from 2.17 µM/min to 3.82 µM/min.

First: B7
Second: B8
The v1: initial velocity of GDP to GTPγS exchange at Gαi1•GDP (2 μM) on adding GTPγS (10 μM) and Ric-8A (2 μM), tryptophan fluorescence, 25°C of the first is higher: 5.65 µM/min for the first, 2.25 µM/min for the second.

First: B9
Second: B10
The v1: initial velocity of GDP to GTPγS exchange at Gαi1•GDP (2 μM) on adding GTPγS (10 μM) and Ric-8A (2 μM), tryptophan fluorescence, 25°C of the first is lower: 0.63 µM/min for the first, 3.84 µM/min for the second.

Compared with B11, B12 is lower in v1: initial velocity of GDP to GTPγS exchange at Gαi1•GDP (2 μM) on adding GTPγS (10 μM) and Ric-8A (2 μM), tryptophan fluorescence, 25°C: 0.82 µM/min for the first, 0.47 µM/min for the second.

First: B13
Second: B14
The v1: initial velocity of GDP to GTPγS exchange at Gαi1•GDP (2 μM) on adding GTPγS (10 μM) and Ric-8A (2 μM), tryptophan fluorescence, 25°C of the first is lower: 0.59 µM/min for the first, 2.9 µM/min for the second.

Going from B15 to B16, the v1: initial velocity of GDP to GTPγS exchange at Gαi1•GDP (2 μM) on adding GTPγS (10 μM) and Ric-8A (2 μM), tryptophan fluorescence, 25°C falls from 7.45 µM/min to 6.54 µM/min.

Going from B17 to B18, the v1: initial velocity of GDP to GTPγS exchange at Gαi1•GDP (2 μM) on adding GTPγS (10 μM) and Ric-8A (2 μM), tryptophan fluorescence, 25°C falls from 2.88 µM/min to 0.63 µM/min.

Going from B1 to B2, the v2: initial rate of GTPγS binding to pre-formed Gαi1:Ric-8A (2 μM each, incubated 5 min before 10 μM GTPγS), with release of Ric-8A, tryptophan fluorescence, 25°C rises from 0.39 µM/min to 6.02 µM/min.

Going from B3 to B4, the v2: initial rate of GTPγS binding to pre-formed Gαi1:Ric-8A (2 μM each, incubated 5 min before 10 μM GTPγS), with release of Ric-8A, tryptophan fluorescence, 25°C falls from 5.15 µM/min to 4.73 µM/min.

Compared with B5, B6 is higher in v2: initial rate of GTPγS binding to pre-formed Gαi1:Ric-8A (2 μM each, incubated 5 min before 10 μM GTPγS), with release of Ric-8A, tryptophan fluorescence, 25°C: 4.57 µM/min for the first, 6.23 µM/min for the second.

Compared with B7, B8 is lower in v2: initial rate of GTPγS binding to pre-formed Gαi1:Ric-8A (2 μM each, incubated 5 min before 10 μM GTPγS), with release of Ric-8A, tryptophan fluorescence, 25°C: 6.85 µM/min for the first, 4.56 µM/min for the second.

First: B9
Second: B10
The v2: initial rate of GTPγS binding to pre-formed Gαi1:Ric-8A (2 μM each, incubated 5 min before 10 μM GTPγS), with release of Ric-8A, tryptophan fluorescence, 25°C of the first is lower: 0.37 µM/min for the first, 4.66 µM/min for the second.

Going from B11 to B12, the v2: initial rate of GTPγS binding to pre-formed Gαi1:Ric-8A (2 μM each, incubated 5 min before 10 μM GTPγS), with release of Ric-8A, tryptophan fluorescence, 25°C rises from 0.25 µM/min to 0.34 µM/min.

Compared with B13, B14 is higher in v2: initial rate of GTPγS binding to pre-formed Gαi1:Ric-8A (2 μM each, incubated 5 min before 10 μM GTPγS), with release of Ric-8A, tryptophan fluorescence, 25°C: 0.24 µM/min for the first, 4.78 µM/min for the second.

Compared with B15, B16 is higher in v2: initial rate of GTPγS binding to pre-formed Gαi1:Ric-8A (2 μM each, incubated 5 min before 10 μM GTPγS), with release of Ric-8A, tryptophan fluorescence, 25°C: 5.06 µM/min for the first, 5.36 µM/min for the second.

Going from B17 to B18, the v2: initial rate of GTPγS binding to pre-formed Gαi1:Ric-8A (2 μM each, incubated 5 min before 10 μM GTPγS), with release of Ric-8A, tryptophan fluorescence, 25°C falls from 5.39 µM/min to 0.26 µM/min.
